Assay [1] concerns the target gp120YU2 T257A (HIV-1 strain YU2). The assay is described as follows: SPR.
In assay [2] the target is gp120YU2 K97A (HIV-1 strain YU2). In words: SPR. On the technique in general: SPR reads the build-up and loss of mass on a sensor chip optically.
Assay [3] deals with gp120YU2 E102A (HIV-1 strain YU2). In words: SPR.
Assay [4] deals with gp120YU2 D474A (HIV-1 strain YU2). The assay is described as follows: SPR.
The test system of a further assay is CCR5-utilizing virus. To be noted: ref [4]; cited from earlier work.

Take “Hexahis-tagged 4-domain soluble CD4 (receptor)”: the Kd (usually the concentration at which binding is half-saturated) in assay [1] came out at 5 nM; in assay [2] it was 10 nM; in assay [3], 3 nM; in assay [4], 5 nM. In addition, the RU bound at the end of association (500 nM CD4) in assay [1] is 23 RU; in assay [4] it was 47 RU.

Consider maraviroc, for which the “antiviral effectiveness by tropism” value in the assay on CCR5-utilizing virus is listed as “only effective against solely CCR5-utilizing virus”.
